Laboratory results reported in patent EP4541822A2 (Tsinghua University, dated 2025).

B1: recombinant protein (SH3)5-DNB (other)
chain: MKHHHHHHHENLYFQGHMDLNMPAYVKFNYMAEREDELSLIKGTKVIVMEKSSDGWWRGSYNGQVGWFPSNYVTEEGDSPLASGAGGSEGGGSEGGTSGATDLNMPAYVKFNYMAEREDELSLIKGTKVIVMEKSSDGWWRGSYNGQVGWFPSNYVTEEGDSPLASGAGGSEGGGSEGGTSGATHMDLNMPAYVKFNYMAEREDELSLIKGTKVIVMEKSSDGWWRGSYNGQVGWFPSNYVTEEGDSPLASGAGGSEGGGSEGGTSGATDLNMPAYVKFNYMAEREDELSLIKGTKVIVMEKSSDGWWRGSYNGQVGWFPSNYVTEEGDSPLASGAGGSEGGGSEGGTSGATDLNMPAYVKFNYMAEREDELSLIKGTKVIVMEKSSDGWWRGSYNGQVGWFPSNYVTEEGDSPLGGSGGSGGSGGSMEVQLLESGGGLVQPGGSLRLSCAASGTFDKINNMGWYRQAPGKQRDLVAQITPGGITDYADSVKGRFTISRDNSKNTLYLQMNSLRPEDTAVYYCNAEILKRAYIDVYVNYWGQGTLVTVSS

Experiments:
death receptor 5 (DR5) = death receptor 5 (DR5) (human, UniProt O14763 56-440); assay: cell-based or functional assay
[1] = molecular target: T1, CXC motif chemokine receptor 4 (CXCR4) (human, UniProt P61073 1-352); assay: fluorescence imaging of SJSA-1 cells with anti-CXCR4 immunostaining (Figs. 5A, 5B)
T1 construct: whole, on cells; Endogenous receptor on human tumour cell lines; also called chemokine receptor CXCR4
T1 sequence (P61073 whole entry): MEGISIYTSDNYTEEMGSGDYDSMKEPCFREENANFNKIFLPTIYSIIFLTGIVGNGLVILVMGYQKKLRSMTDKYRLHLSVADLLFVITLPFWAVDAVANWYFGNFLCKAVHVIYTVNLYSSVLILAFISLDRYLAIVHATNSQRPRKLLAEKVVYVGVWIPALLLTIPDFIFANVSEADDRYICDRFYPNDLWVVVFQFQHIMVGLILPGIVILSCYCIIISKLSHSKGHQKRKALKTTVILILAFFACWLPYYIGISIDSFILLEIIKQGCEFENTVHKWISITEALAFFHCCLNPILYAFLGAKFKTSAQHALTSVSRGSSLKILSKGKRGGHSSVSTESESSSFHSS

[2] = molecular target: T2, recombinant protein (SUM)3-DNB; assay: fluorescence imaging of SJSA-1 cells (Figs. 5A, 5B)
T2 construct: The entry also holds a 7xHis tag and TEV site; Green-labelled for imaging; unlabelled in the apoptosis assays; also called (SUM)3-DNB (Green)

[3] = molecular target: B1; assay: confocal imaging of SJSA-1 cells, 100 nM each (Fig. 9A)
[4] = molecular target: T3, recombinant protein (SUM)5-DNB; assay: fluorescence imaging of SJSA-1 cells, 100 nM (Figs. 3A, 3B)
T3 construct: The entry also holds a 7xHis tag and TEV site; Labelled with Alexa647 for imaging; also called (SUM)5-DNB (Green)

[5] = molecular target: T1, CXC motif chemokine receptor 4 (CXCR4); assay: fluorescence imaging of SJSA-1 cells with anti-CXCR4 immunostaining (Figs. 3A, 3B)
[6] = molecular target: T1, CXC motif chemokine receptor 4 (CXCR4); assay: confocal imaging of SJSA-1 cells; membrane puncta with the ligand fusions, none with the multivalent domains alone
[7] = molecular target: T4, multivalent domain (SUM)5; assay: confocal imaging of SJSA-1 cells, (SIM)6-R4L (Red) plus (SUM)5 (Green), 100 nM each (Fig. 2A)
T4 construct: Labelled with Alexa647 for imaging; also called (SUM)5 (Green)
T4 sequence (chain, as listed by the source): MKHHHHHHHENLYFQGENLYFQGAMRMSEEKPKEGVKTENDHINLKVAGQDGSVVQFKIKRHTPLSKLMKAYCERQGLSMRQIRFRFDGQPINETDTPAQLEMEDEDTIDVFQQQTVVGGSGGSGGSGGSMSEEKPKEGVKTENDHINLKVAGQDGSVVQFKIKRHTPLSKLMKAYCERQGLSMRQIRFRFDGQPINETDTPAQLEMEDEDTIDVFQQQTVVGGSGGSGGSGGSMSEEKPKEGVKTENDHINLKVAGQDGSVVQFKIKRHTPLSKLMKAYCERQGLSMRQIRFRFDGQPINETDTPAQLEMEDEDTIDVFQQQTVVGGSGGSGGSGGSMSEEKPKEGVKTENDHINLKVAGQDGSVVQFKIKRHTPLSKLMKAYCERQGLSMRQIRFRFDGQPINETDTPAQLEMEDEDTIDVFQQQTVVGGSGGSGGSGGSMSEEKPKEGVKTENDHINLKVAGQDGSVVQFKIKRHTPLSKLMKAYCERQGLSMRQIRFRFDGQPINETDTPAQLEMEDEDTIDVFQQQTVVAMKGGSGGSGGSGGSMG

For B1, the “apoptotic ratio of SJSA-1 cells, Annexin V-FITC/PI flow cytometry, 4 h; (SH3)5-DNB (Green) added together with (PRMH)5-CNB (Red) at 100 nM” value (death receptor 5 (DR5)) was roughly 58.4%.

B2: recombinant protein (SIM)3-CNB (other)
chain: MKHHHHHHHENLYFQGAMKVDVIDLTIESSSDEEEDPPAKRGGSGGSGGSGGSMMKVDVIDLTIESSSDEEEDPPAKRGGSGGSGGSGGSMMKVDVIDLTIESSSDEEEDPPAKRGGSGGSGGSGGSMGEVQLMESGGGLVQAGGSLRLSCAASGRTFNNYAMGWFRRAPKGEREFVAAITRSGVRSGVSAIYGDSVKDRFTISRDNAKNTLYLQMNSLKPEDTAVYTCAASAIGSGALRRFEYDYSGQGTQVTVSS
notes: The entry also holds a 7xHis tag and TEV site; Red-labelled for imaging; also called (SIM)3-CNB (Red)
B2: binds [1]; binds [2].

B3: recombinant protein (PRMH)5-CNB (other)
chain: MKHHHHHHHENLYFQGHMKGGSWGGSKKTPPPVPPRTTSKGGSGGSGGSGGSKKTPPPVPPRTTSKGGSGGSGGSGGSKKTPPPVPPRTTSKGGSGGSGGSGGSKKTPPPVPPRTTSKGGSGGSGGSGGSKKTPPPVPPRTTSKGGSGSKNLYFQGGSGGSGGSGGSMEVQLMESGGGLVQAGGSLRLSCAASGRTFNNYAMGWFRRAPKGEREFVAAITRSGVRSGVSAIYGDSVKDRFTISRDNAKNTLYLQMNSLKPEDTAVYTCAASAIGSGALRRFEYDYSGQGTQVTVSS
notes: The entry also holds a 7xHis tag and TEV site; Labelled with Alexa594; also called (PRMH)5-CNB (Red)
B3: binds [3].

B4: recombinant protein (SIM)6-CNB (other)
chain: MKHHHHHHHENLYFQGAMSSKVDVIDLTIESSSDEEEDPPAKRGGSGGSGGSGGSKVDVIDLTIESSSDEEEDPPAKRGGSGGSGGSGGSKVDVIDLTIESSSDEEEDPPAKRGAMKGGSGGSGGSGGSMSSKVDVIDLTIESSSDEEEDPPAKRGGSVGSGGSGGSKVDVIDLTIESSSDEEEDPPAKRGGSGGSGGRGGSKVDVIDLTIESSSDEEEDPPAKRGAMRCWGGSGGSGGSGGSMGEVQLMESGGGLVQAGGSLRLSCAASGRTFNNYAMGWFRRAPKGEREFVAAITRSGVRSGVSAIYGDSVKDRFTISRDNAKNTLYLQMNSLKPEDTAVYTCAASAIGSGALRRFEYDYSGQGTQVTVSS
notes: The entry also holds a 7xHis tag and TEV site; Labelled with Alexa594 for imaging; also called (SIM)6-CNB (Red)
B4: binds [4]; binds [5].

B5: recombinant protein (SIM)6-R4L (other)
chain: MKHHHHHHHENLYFQGAMSSKVDVIDLTIESSSDEEEDPPAKRGGSGGSGGSGGSKVDVIDLTIESSSDEEEDPPAKRGGSGGSGGSGGSKVDVIDLTIESSSDEEEDPPAKRGAMKGGSGGSGGSGGSMSSKVDVIDLTIESSSDEEEDPPAKRGGSVGSGGSGGSKVDVIDLTIESSSDEEEDPPAKRGGSGGSGGRGGSKVDVIDLTIESSSDEEEDPPAKRGAMRCWGGSGGSGGSGGSMGMCYRKCRGGRRWCYQKCGGSGGSGGSGGS
notes: also called (SIM)6-R4L (Red)
B5: binds [6]; binds [7].
